PMC4004102

Target: AgrC-I (wild type) dimer embedded in nanodiscs (Staphylococcus aureus)
Test: fluorescence polarisation

Substance | Kd
AIP-I (native autoinducing peptide of agr group 1) | 63 nM
AIP-II (native autoinducing peptide of agr group 2) | 160 nM
